# Settings: Homo sapiens, pH 3, Thermal, DSC, glycine-HCl 0.05 M, reversible: yes, whole UniProt chain shown
protein,measurement,setting,value
"Lysozyme C wild type, P61626 (protein) MKALIVLGLVLLSVTVQGKVFERCELARTLKRLGMDGYRGISLANWMCLAKWESGYNTRATNYNAGDRSTDYGIFQINSRYWCNDGKTPGAVNACHLSCSALLQDNIADAVACAKRVVRDPQGIRAWVAWRNRCQNRDVRQYVQGCGV",heat capacity change of unfolding,57 °C,1.55 kcal/mol/K
same,unfolding enthalpy (calorimetric),57 °C,101 kcal/mol
same,unfolding free energy,57 °C,4.6 kcal/mol
same,Tm,,71.4 °C

# From FireProtDB (doi:10.1021/bi00150a028)
